Reference: PMC3675359, “GxcC connects Rap and Rac signaling during Dictyostelium development” (BMC Cell Biology, 2013)

Molecular target: T1, NtermGxcC (aa 1-633), recombinant GST-ARM purified from E. coli (Dictyostelium discoideum, UniProt Q54P24 1-633)
T1 construct: GxcC, Dictyostelium discoideum, UniProt Q54P24; aa 1-633 as printed, from pGEX4T3; the cloning paragraph says that the N-terminal fragment of base pairs 1-1911 (637 codons) was ligated into pGEX 4T3; also called ARM domain of GxcC; purified GxcC ARM domain; not shown: GST, N-terminal, kept
T1 sequence (looked up): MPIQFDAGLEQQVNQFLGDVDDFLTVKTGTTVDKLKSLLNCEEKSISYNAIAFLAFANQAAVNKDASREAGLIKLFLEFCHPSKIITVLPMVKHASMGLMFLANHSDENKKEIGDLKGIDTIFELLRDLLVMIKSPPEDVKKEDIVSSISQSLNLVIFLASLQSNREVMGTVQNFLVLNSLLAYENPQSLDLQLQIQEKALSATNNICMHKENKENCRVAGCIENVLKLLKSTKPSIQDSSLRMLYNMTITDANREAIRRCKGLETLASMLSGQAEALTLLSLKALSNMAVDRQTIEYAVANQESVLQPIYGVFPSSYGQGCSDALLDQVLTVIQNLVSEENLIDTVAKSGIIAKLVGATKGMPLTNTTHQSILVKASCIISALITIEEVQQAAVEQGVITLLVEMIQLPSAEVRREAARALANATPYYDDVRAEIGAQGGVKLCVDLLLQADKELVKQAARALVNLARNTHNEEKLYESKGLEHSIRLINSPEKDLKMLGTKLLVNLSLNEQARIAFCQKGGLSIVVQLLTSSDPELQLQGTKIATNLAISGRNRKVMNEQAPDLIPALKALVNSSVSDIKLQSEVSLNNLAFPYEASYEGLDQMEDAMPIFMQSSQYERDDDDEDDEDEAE
Test: guanine nucleotide dissociation inhibition (GDI) assay; G-protein loaded with mGppNHp incubated with an excess of unlabelled nucleotide; decay of fluorescence (kobs) at varying concentrations of GST-ARM
Details: both partners purified

Kd: 13.3 µM
B1: RapA purified from E. coli (loaded with mGppNHp or mGDP) (natural protein, Dictyostelium discoideum, UniProt P18613 1-186, looked up)
chain: MPLREFKIVVLGSGGVGKSALTVQFVQGIFVEKYDPTIEDSYRKQVEVDSNQCMLEILDTAGTEQFTAMRDLYMKNGQGFVLVYSIISNSTFNELPDLREQILRVKDCEDVPMVLVGNKCDLHDQRVISTEQGEELARKFGDCYFLEASAKNKVNVEQIFYNLIRQINRKNPVGPPSKAKSKCALL
notes: RapA, Dictyostelium discoideum; Loaded with the fluorescent nucleotide mGppNHp (or mGDP); It may be the GST-RapA of the screen with or without its GST; source: E. coli, purified
